Data from article PMC3918043.

Biological target: Sp1 (human, UniProt P08047 1-785)
Test: EMSA

Sequence of Sp1 (P08047 whole entry): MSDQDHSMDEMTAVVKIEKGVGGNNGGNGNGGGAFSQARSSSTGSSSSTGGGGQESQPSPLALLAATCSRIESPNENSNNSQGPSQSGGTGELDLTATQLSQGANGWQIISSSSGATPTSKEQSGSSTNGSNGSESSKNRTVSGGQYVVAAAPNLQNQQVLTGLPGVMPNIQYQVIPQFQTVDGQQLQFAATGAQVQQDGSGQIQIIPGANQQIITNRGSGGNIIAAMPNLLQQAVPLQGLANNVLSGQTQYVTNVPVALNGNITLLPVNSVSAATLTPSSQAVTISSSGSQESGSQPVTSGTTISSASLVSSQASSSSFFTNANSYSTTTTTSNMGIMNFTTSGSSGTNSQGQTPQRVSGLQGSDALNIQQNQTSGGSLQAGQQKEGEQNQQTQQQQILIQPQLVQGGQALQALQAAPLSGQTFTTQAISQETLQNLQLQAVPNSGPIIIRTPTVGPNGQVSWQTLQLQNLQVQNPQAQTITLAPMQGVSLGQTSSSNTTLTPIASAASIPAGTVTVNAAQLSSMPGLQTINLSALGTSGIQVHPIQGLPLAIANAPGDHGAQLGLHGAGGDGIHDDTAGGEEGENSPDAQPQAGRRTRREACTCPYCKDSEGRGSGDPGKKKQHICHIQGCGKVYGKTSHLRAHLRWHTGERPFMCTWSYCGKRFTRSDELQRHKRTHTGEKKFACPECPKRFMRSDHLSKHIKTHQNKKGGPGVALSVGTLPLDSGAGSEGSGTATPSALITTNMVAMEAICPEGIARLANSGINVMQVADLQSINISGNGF

Binder | binding result
wtANF-Sp-s1 (dsDNA) DNA 1: GTGACAGAATGGGGAGGGTTCCAGCTCT DNA 2: AGAGCTGGAACCCTCCCCATTCTGTCAC | binds
wtANF-Sp-s2 (dsDNA) DNA 1: TGAGGGTCTGGGGGAGGGAGGGTTACTGGAG DNA 2: CTCCAGTAACCCTCCCTCCCCCAGACCCTCA | binds
wtANF-Sp-s3 (dsDNA) DNA 1: TATTGCCTCTCCTCCCGCCCTTATTTGGAG DNA 2: CTCCAAATAAGGGCGGGAGGAGAGGCAATA | binds
wtANF-Sp-s4 (dsDNA) DNA 1: GACATCTAGGGTGGGGGTGGGCTGTCTGG DNA 2: CCAGACAGCCCACCCCCACCCTAGATGTC | binds
